Reference: US20110269148A1 (published 2011)

Target: protein A on the surface of Staphylococcus aureus cells (ATCC 12598) (Staphylococcus aureus, UniProt P38507 37-477)
Assay: cell-based or functional assay

B1: sdAb-NAEB: single domain antibody HVHP428 (human VH) conjugated to rhodamine 6G gold nanoaggregate embedded beads with silica shell (other)
VH: QLQLQESGGGLVQPGGSLRLSCAASGFTFSSYAMSWFRQAPGKGLEWVGFIRSKAYGGTTEYAASVKGRFTISRDDSKSIAYLQMNSLRAEDTAMYYCARRAKDGYNSPEDYWGQGTLVTVSS
modifications: covalently coupled by EDC/NHS chemistry to the amine- or carboxylate-modified silica shell of the bead; coupled residues not stated
agglutination relative to the sdAb pentamer (Ryan et al., 2009; MAC value 3×10^13 pentamer mL^-1): > 100 fold
